According to PMC12319226 (Frontiers in Bioinformatics, 2025):
Substitutions are numbered along the chain they refer to.

Legend:
Test in all cases: BLI
Details in all cases: both partners purified
fHbp m001768 = target: T1, fHbp m001768 (Neisseria meningitidis, engineered fHbp …, point mutant)
T1 chain: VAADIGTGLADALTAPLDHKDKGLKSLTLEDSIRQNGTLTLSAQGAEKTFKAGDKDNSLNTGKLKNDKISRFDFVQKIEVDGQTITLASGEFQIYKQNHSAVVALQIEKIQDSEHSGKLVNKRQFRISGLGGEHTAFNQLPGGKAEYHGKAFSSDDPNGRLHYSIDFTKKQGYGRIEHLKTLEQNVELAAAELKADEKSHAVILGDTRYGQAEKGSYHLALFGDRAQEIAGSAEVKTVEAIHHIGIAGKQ

fHbp m001822 = target: T2, fHbp m001822 (Neisseria meningitidis, engineered fHbp …, point mutant)
T2 chain: T1 chain with Q211S, T237S

fHbp m001848 = target: T3, fHbp m001848 (Neisseria meningitidis, engineered fHbp …, chimera)
T3 chain: T1 chain with Q211S

fHbp m001941 = target: T4, fHbp m001941 (Neisseria meningitidis fHbp v3.28, …, chimera)
T4 chain: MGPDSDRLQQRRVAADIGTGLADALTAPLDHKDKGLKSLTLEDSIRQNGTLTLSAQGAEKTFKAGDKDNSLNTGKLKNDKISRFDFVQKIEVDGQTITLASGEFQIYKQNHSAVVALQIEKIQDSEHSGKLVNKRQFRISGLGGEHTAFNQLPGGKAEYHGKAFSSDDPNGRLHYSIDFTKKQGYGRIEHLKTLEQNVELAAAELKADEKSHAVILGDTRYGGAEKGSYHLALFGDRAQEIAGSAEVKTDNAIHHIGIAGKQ

fHbp m002334 = target: T5, fHbp m002334 (Neisseria meningitidis, engineered fHbp …, chimera)
T5 chain: T1 chain with G210N, Q211S

fHbp m001119 = target: T6, fHbp m001119 (Neisseria meningitidis fHbp v3.28-based …, point mutant)
T6 chain: T4 chain with Y221L, G223S, D250V, N251E, A252S

fHbp m001213 = target: T7, fHbp m001213 (Neisseria meningitidis fHbp v3.28-based …, point mutant)
T7 chain: T4 chain with Y221L

fHbp m001608 = target: T8, fHbp m001608 (Neisseria meningitidis, fHbp …, point mutant)
T8 chain: T4 chain with Y221L, G222N, G223S, D250V, A252S

[1] = target: T9, factor H binding protein variant 1.1 (Neisseria meningitidis serogroup B …, UniProt Q9JXV4)
T9 construct: also called fHbp v1.1; v1.1 Control (0001)

B1: mAb 1E6 (human) (antibody, V domains shown)
VH: EVQLVQSGAEVKKPGSSVKVSCKASGGTVIDYPITWVRQAPGQGLEWVGGFVPLFRTSNYGQKFQGRVTITADKSTSTASMELNSLTSEDTAIYYCARGDTAMGPFDYWGQGTLVTVSS
VL: SYVLTQPPSLSVAPGKTATLTCGGNNIAGKTVHWYQQRPGQAPVLVISYDSDRPSGIPERFSGSNSANTATLTISRVEAGDEADYYCQVWDRNSDHWVFGGGTKLTVL
notes: source: Expi293, purified (MabSelect SuRe, SEC); copies: 2 + 2
Question: With B1 as the binder, how does the Kd (fHbp m001768) read?
Answer: 538 pM

Question: And the koff (fHbp m001768)?
Answer: 0.000175 s⁻¹

Question: And the kon (fHbp m001768)?
Answer: 325000 ± 2320 M⁻¹ s⁻¹

Question: What about the Kd (fHbp m001822) of the same binder?
Answer: 455 pM

Question: What about the koff (fHbp m001822) of the same binder?
Answer: 0.00017 s⁻¹

Question: And the kon (fHbp m001822)?
Answer: 372900 ± 2610 M⁻¹ s⁻¹

Question: What about the Kd (fHbp m001848) of the same binder?
Answer: 344 pM

Question: What about the koff (fHbp m001848) of the same binder?
Answer: 0.000155 s⁻¹

Question: What about the kon (fHbp m001848) of the same binder?
Answer: 451100 ± 2150 M⁻¹ s⁻¹

Question: And the Kd (fHbp m001941)?
Answer: 464 pM

Question: What about the koff (fHbp m001941) of the same binder?
Answer: 0.00015 s⁻¹

Question: And the kon (fHbp m001941)?
Answer: 323000 ± 2300 M⁻¹ s⁻¹

Question: And the Kd (fHbp m002334)?
Answer: 844 pM

Question: What about the koff (fHbp m002334) of the same binder?
Answer: 0.000101 s⁻¹

Question: What about the kon (fHbp m002334) of the same binder?
Answer: 119300 ± 930 M⁻¹ s⁻¹

Question: What about the Kd (fHbp m001119) of the same binder?
Answer: 886 pM

Question: What about the koff (fHbp m001119) of the same binder?
Answer: 0.000349 s⁻¹

Question: And the kon (fHbp m001119)?
Answer: 393800 ± 1250 M⁻¹ s⁻¹

Question: What about the Kd (fHbp m001213) of the same binder?
Answer: 594 pM

Question: And the koff (fHbp m001213)?
Answer: 0.000262 s⁻¹

Question: What about the kon (fHbp m001213) of the same binder?
Answer: 440700 ± 1810 M⁻¹ s⁻¹

Question: And the Kd (fHbp m001608)?
Answer: 154 pM

Question: And the koff (fHbp m001608)?
Answer: 8.28e-05 s⁻¹

Question: What about the kon (fHbp m001608) of the same binder?
Answer: 537900 ± 1940 M⁻¹ s⁻¹

B2: chimeric antibody h12C1 (antibody, V domains shown)
VH: QVQLQESGPELVKPGASVKISCKASGYSFSDYNMSWVKQSNGKSLEWIGIIDPKYGTINYNQKFKGKATLTVDQASSTAYMQLNSLTSEDSAVYYCVRDYYGSSYFDYWGQGTTLTVSS
VL: DIVLTQSPSSIYASLGERVTLTCKASQDIHNYLNWFQQKPGKSPKTLIYRANRLVDGVPSRFSGGGSGQDYSLTISSLEFEDIGIYYCLQYDEFPPTFGGGTRLEIK
notes: also called humanized 12C1; source: Expi293, purified (MabSelect SuRe, SEC); copies: 2 + 2
Question: How did the Kd [1] turn out when B2 was run?
Answer: 391 pM

Question: And the koff [1]?
Answer: 0.000273 s⁻¹

Question: And the kon [1]?
Answer: 697400 ± 1920 M⁻¹ s⁻¹

Question: And the Kd (fHbp m001768)?
Answer: 5510 pM

Question: And the koff (fHbp m001768)?
Answer: 0.000453 s⁻¹

Question: And the kon (fHbp m001768)?
Answer: 82200 ± 1160 M⁻¹ s⁻¹

Question: What about the Kd (fHbp m001119) of the same binder?
Answer: 957 pM

Question: What about the koff (fHbp m001119) of the same binder?
Answer: 0.000266 s⁻¹

Question: And the kon (fHbp m001119)?
Answer: 278300 ± 1110 M⁻¹ s⁻¹
